This passage reports Kd results from article PMC10010047.

In this assay the target is insulin growth factor-1 receptor (IGF1R) (mouse (endogenous in mouse heart)). In words: BLI. A general note: Biolayer interferometry detects binding as a change in optical thickness at a sensor tip.

B1: recombinant mouse SIRPα Fc chimera protein (rSIRPα) (Fc fusion)
chain: KELKVTQPEKSVSVAAGDSTVLNCTLTSLLPVGPIRWYRGVGPSRLLIYSFAGEYVPRIRNVSDTTKRNNMDFSIRISNVTPADAGIYYCVKFQKGSSEPDTEIQSGGGTEVYVLAKPSPPEVSGPADRGIPDQKVNFTCKSHGFSPRNITLKWFKDGQELHPLETTVNPSGKNVSYNISSTVRVVLNSMDVNSKVICEVAHITLDRSPLRGIANLSNFIRVSPTVKVTQQSPTSMNQVNLTCRAERFYPEDLQLIWLENGNVSRNDTPKNLTKNTDGTYNYTSLFLVNSSAHREDVVFTCQVKHDQQPAITRNHTVLGFAHSSDQGSMQTFPDNNATHNWN
In turn, B1 came in with a Kd of 147 µM.

Broadly, the Kd is the equilibrium constant for the complex coming apart. Read a low Kd as a tighter complex.
